Experimental findings from PMC2770089 are described below.

In the assay the target is Tat translocon (TatABC) in inverted membrane vesicles (E. coli) (UniProt P69428). Description: co-sedimentation.
Chain of Tat translocon (TatABC) in inverted membrane vesicles (E. coli) (P69428 whole entry, chain 1 of 3): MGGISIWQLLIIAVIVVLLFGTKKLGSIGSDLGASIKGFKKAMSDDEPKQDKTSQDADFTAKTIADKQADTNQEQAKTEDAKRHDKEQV
Chain of Tat translocon (TatABC) in inverted membrane vesicles (E. coli) (P69425 whole entry, chain 2 of 3, further chain): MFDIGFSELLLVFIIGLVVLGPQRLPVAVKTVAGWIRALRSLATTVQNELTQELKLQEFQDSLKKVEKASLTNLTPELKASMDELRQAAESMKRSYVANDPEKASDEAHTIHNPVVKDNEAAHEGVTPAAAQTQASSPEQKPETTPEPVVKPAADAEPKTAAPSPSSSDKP
Chain of Tat translocon (TatABC) in inverted membrane vesicles (E. coli) (P69423 whole entry, chain 3 of 3, further chain): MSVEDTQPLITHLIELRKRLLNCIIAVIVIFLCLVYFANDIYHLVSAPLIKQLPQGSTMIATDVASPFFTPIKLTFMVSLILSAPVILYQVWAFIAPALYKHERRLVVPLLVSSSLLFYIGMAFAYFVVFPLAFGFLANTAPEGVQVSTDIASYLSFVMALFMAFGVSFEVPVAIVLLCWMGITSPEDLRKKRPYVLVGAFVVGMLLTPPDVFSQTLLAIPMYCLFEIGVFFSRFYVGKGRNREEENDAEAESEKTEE

spTorA-GFP: the amount bound to the Tat machinery (8.3 pmol added) came to 0.5 pmol and the amount of precursor added at which translocon binding saturates was 4 pmol.

“pre-SufI (from UniProt P26648 28-470) (natural protein)” returned a percent decrease of precursor bound to the Tat machinery from 0.05 to 1 M KCl of 35% and a percent inhibition of translocon binding by 1 M urea of 75%.
